Source: publication PMC6050272, “A TRAF3-NIK module differentially regulates DNA vs RNA pathways in innate immune signaling” (Nature Communications, 2018)

Molecular target: the molecule itself
Test: semi-native SDS PAGE; whole-cell lysates of WT and Nik-/- BMDMs transfected with B-DNA (2 μg/mL) for the indicated times; native sample buffer without β-mercaptoethanol, not boiled, run on SDS gels; immunoblot for STING

B1: STING, endogenous in mouse cells (natural protein, mouse (endogenous in MEFs and BMDMs), UniProt Q3TBT3 1-378, looked up)
chain: MPYSNLHPAIPRPRGHRSKYVALIFLVASLMILWVAKDPPNHTLKYLALHLASHELGLLLKNLCCLAEELCHVQSRYQGSYWKAVRACLGCPIHCMAMILLSSYFYFLQNTADIYLSWMFGLLVLYKSLSMLLGLQSLTPAEVSAVCEEKKLNVAHGLAWSYYIGYLRLILPGLQARIRMFNQLHNNMLSGAGSRRLYILFPLDCGVPDNLSVVDPNIRFRDMLPQQNIDRAGIKNRVYSNSVYEILENGQPAGVCILEYATPLQTLFAMSQDAKAGFSREDRLEQAKLFCRTLEEILEDVPESRNNCRLIVYQEPTDGNSFSLSQEVLRHIRQEEKEEVTMNAPMTSVAPPPSVLSQEPRLLISGMDQPLPLRTDLI
notes: STING (TMEM173), endogenous in murine embryonic fibroblasts and bone marrow-derived macrophages; source: endogenous, MEF lysate and BMDM lysate (cells transfected with B-DNA)
  stoichiometry N: 2
